This note sets out measurements from patent US11268120B2, “Identification of transglutaminase substrates and uses therefor” (Roche Sequencing Solutions, Inc., priority 2014, dated 2022).

Assay [1] deals with T1, MTG (Streptomyces mobaraensis, UniProt P81453).
T1 construct: purchased Zedira GmbH
T1 sequence (P81453 77-407): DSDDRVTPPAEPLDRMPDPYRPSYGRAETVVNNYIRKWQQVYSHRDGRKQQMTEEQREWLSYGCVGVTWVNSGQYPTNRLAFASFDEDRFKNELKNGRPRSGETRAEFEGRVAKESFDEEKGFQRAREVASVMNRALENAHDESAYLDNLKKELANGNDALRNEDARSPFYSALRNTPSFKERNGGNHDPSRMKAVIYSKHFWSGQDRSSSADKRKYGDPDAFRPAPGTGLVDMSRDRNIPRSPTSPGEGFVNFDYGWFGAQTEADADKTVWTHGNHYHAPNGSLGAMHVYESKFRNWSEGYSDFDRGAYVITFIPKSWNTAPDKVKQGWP
Nature of the assay: GLDH-coupled continuous assay for MTG activity in solution, Gln-containing substrate peptides. It counts as biochemical. As to conditions: pH 7.2, 37° C. As to the method: (§1) FIG. 3 is a plot of MTG activity obtained by measuring rates of NADH oxidation at 340 nm and 37° C. using various concentrations of the di-peptide QG (1-20 mM) and the peptide […] (SEQ ID NO: 86) (0.2-5 mM) in the GLDH-coupled assay. The Michaelis-Menten equation was used to fit hyperbolic curves to the data points, giving Km and Vmax parameters and allowing calculation of turnover number (kcat) and catalytic efficiency (kcat/KM). Improved performance of array selected […] (SEQ ID NO: 86) (open squares) substrate was observed compared to standard QG-substrate (filled squares). ‘Z’ represents a carboxybenzyl protective group. […] The Michaelis-Menten equation was used to fit hyperbolic curves to the data points, giving Km and Vmax parameters as well as allowing calculation of turnover number (kcat) and catalytic efficiency (kcat/KM). Improved performance of array selected […] (SEQ ID NO: 80) (filled squares) substrate was observed as compared to a […] (SEQ ID NO: 81) substrate (filled circles). ‘Z-’ represents a carboxybenzyl protective group.
It was next determined whether peptides selected in the array assay were also preferred substrates in the solution reaction. The performance of the […] (SEQ ID NO: 26) peptide found in the array assay and the QG peptide substrate commonly used for testing MTG activity were compared. […]
The assay was performed in a 96-well microtiter plate in the presence of 10 mM α-ketoglutarate, 10 mM glycine methyl ester as acyl acceptor, 2 U of glutamate dehydrogenase (GLDH), 500 μM NADH (i.e., reduced nicotinamide adenine dinucleotide) and Gln-containing substrate peptide concentrations ranging between 0.2 and 20 mM in 200 mM MOPS (i.e., 3-(N-morpholino)propanesulfonic acid), 1 mM EDTA pH 7.2 (total volume per well 200 μl). The reaction was started by the addition of 0.1 U of MTG (Zedira GmbH) and the oxidation of NADH was continuously recorded against a blank at 340 nm for 20 min using a Biotek Synergy H4 microplate reader thermostated at 37° C. with short shaking intervals before each measurement. […]

Assay [2] deals with T1, MTG. Briefly: GLDH-coupled continuous assay for MTG activity in solution, Lys-containing substrate peptides. The class given is biochemical. The procedure: as §1
Lys-tag peptides were assayed in solution analog to the Gln-containing substrates: The assay was performed in a 96-well microtiter plate in the presence of 1.25 mM α-ketoglutarate, 100 μM Z-[…] (SEQ ID NO: 86) peptide as […], 0.2 U of glutamate dehydrogenase (GLDH), 500 μM NADH and Lys-containing substrate peptide concentrations ranging between 0 and 500 μM in 200 mM MOPS, 1 mM EDTA pH 7.2 (total volume per well 200 μl). The reaction was started by the addition of 0.1 U of MTG (Zedira GmbH) and the oxidation of NADH was continuously recorded against a blank at 340 nm for 20 min using a Biotek Synergy H4 microplate reader thermostated at 37° C. with short shaking intervals before each measurement. After a short lag phase, where the GLDH was saturated by MTG-mediated release of ammonia, linear rates of absorbance versus time, corresponding to MTG turnover, were observed, and subjected to Michaelis-Menten kinetic analysis.

A short description of assay [3]: BIACORE 3000 binding kinetics of VitDBP constructs to biotin labeled 25-OH-VitD2. As to conditions: 25° C. The procedure:
Experiments were carried out to determine whether the addition of an array-selected motif interferes with the ability of VitDBP to bind to its natural ligand, 25-hydroxylated vitamin D2 (25-OH-VitD2). The glutamine donor motif selected for use was […] (i.e., SEQ ID NO 86). A BIACORE SA sensor was mounted into a BIACORE 3000 instrument. The instrument was tempered at 25° C. The sensor was preconditioned as recommended by the manufacturer (GE Healthcare). The system buffer was PBS pH 8.2 with 5% DMSO and 0.05% TWEEN20. The sample buffer was the system buffer supplemented with 1 mg per ml CMD (Sigma). From a 300 nM biotin labeled 25-OH-VitD2 (25-OH-VitD2-bi) sample solution 860 RU were captured on the sensor flow cell 2 by a 2 min injection at 10 μl per minute. The sensor surface was finally saturated by 5 μM amino-PEO-biotin (Pierce). As a reference, 1 μM amino-PEO-biotin was injected into flow cell 1 for 1 min at a rate of 10 μl per minute.
The analytes wt-VitDBP-His8 and wt-VitDBP-His8-Q2 were compared for their binding behavior towards 25-OH-VitD2. The Gln-motif was later ruthenylated by an MTG catalyzed reaction as described (FIGS. 10A and 10B).
The analytes were injected in concentration series of 600 nM, 200 nM, 67 nM, 22 nM, 7.4 nM and 0 nM (buffer only). The analyte association was monitored for 3 min and the dissociation for 5 min both at 20 μl per minute (FIGS. 11 and 12).
After each injection the system was regenerated by a 100 mM HCl injection for 1 minute and 15 seconds at 20 μl per minute followed by a 2 min injection of 10 mM glycine buffer pH 1.5. The data was overlayed in a BIACORE sensorgram and kinetic data was calculated by fitting a Langmuir 1:1 binding model to the data obtained as recommended by the manufacturer using the Biaevaluation Software version 4.1.

No end group written: not given here. *: point of attachment. Cbz = O=C(OCc1ccccc1)*

As for Z-GGGDYALQGGGG (Cbz-GGGDYALQGGGG), in the assay with MTG [1] (Gln-peptide 0.2-20 mM, 10 mM glycine methyl ester as acyl acceptor), the Michaelis constant (Km) is 970 ± 320 µM. Besides, in the assay with MTG [1] (Gln-peptide, 0.1 U MTG), the Vmax amounted to 0.46 ± 0.06 nmol/s. For the same molecule, the kcat with MTG [1] (Gln-peptide) stood at 6.0 s⁻¹.

As to Z-GGGARSKLGGGG, the “apparent difference in MTG catalytic efficiency compared to low-signal substrate GGGDEKPDGGGG” value on MTG [2] is recorded as “at least 10 fold”. Further, the Michaelis constant (Km) on MTG [2] (Lys-peptide 0-500 μM, 100 μM Z-GGGDYALQGGGG, pH 7.2, 37° C.) is 66.8 ± 20.2 µM. Further, the Vmax on MTG [2] (Lys-peptide, 0.1 U MTG, pH 7.2, 37° C.) is 5.1 ± 0.5 pmol/s. Further, the catalytic constant (kcat) on MTG [2] (Lys-peptide, pH 7.2, 37° C.) is 0.066 s⁻¹.

As for “Z-GGGDEKPDGGGG (Cbz-GGGDEKPDGGGG) [reference compound]”, the “MTG activity (in words)” value with MTG [2] (kinetic data could not be determined) was “extremely low activity”.

B1: wt-VDBP-His8: wild type vitamin D binding protein with C-terminally fused 8× Histidine tag, without Q2 tag (protein, UniProt P02774 17-474, looked up)
Vitamin D-binding protein: LERGRDYEKNKVCKEFSHLGKEDFTSLSLVLYSRKFPSGTFEQVSQLVKEVVSLTEACCAEGADPDCYDTRTSALSAKSCESNSPFPVHPGTAECCTKEGLERKLCMAALKHQPQEFPTYVEPTNDEICEAFRKDPKEYANQFMWEYSTNYGQAPLSLLVSYTKSYLSMVGSCCTSASPTVCFLKERLQLKHLSLLTTLSNRVCSQYAAYGEKKSRLSNLIKLAQKVPTADLEDVLPLAEDITNILSKCCESASEDCMAKELPEHTVKLCDNLSTKNSKFEDCCQEKTAMDVFVCTYFMPAAQLPELPDVELPTNKDVCDPGNTKVMDKYTFELSRRTHLPEVFLSKVLEPTLKSLGECCDVEDSTTCFNAKGPLLKKELSSFIDKGQELCADYSENTFTEYKKKLAERLKAKLPDATPTELAKLVNKHSDFASNCCSINSPPLYCDSEIDAELKNIL
modifications: His8 tag
As to B1, in assay [3] (Langmuir 1:1 binding model), the Kd is 95 nM, the ka was 13800 M⁻¹ s⁻¹ and the kd was determined as 0.00131 s⁻¹. The Kd in assay [3] (Ligand VitD2-250H-biotin (300 nM)) stood at 95 nM.
